# Results: US10919943B2, “Mutant proteins enabling agrochemical control of plant gene expression” (The Regents of the University of California, priority 2016, dated 2021)
# Marks after values point to notes of the source that are not given here.
# B1: T162D: PYR1 mutant T162D, denoted PYR1^! (protein, UniProt O49686 1-191, looked up, variant T162D)
# Abscisic acid receptor PYR1: MPSELTPEERSELKNSIAEFHTYQLDPGSCSSLHAQRIHAPPELVWSIVRRFDKPQTYKHFIKSCSVEQNFEMRVGCTRDVIVISGLPANTSTERLDILDDERRVTGFSIIGGEHRLTNYKSVTTVHRFEKENRIWTVVLESYVVDMPEGNSEDDTRMFADDVVKLNLQKLATVAEAMARNSGDGSGSQVT
# B2: HAB1^!-3: HAB1^!-2 with the D204A mutation, catalytically inactive (protein)
# chain: MTPAVAMTLSLAANTMCESSPVEITQLKNVTDAADLLSDSENQSFCNGGTECTMEDVSELEEVGEQDLLKTLSDTRSGSSNVFDEDDVLSVVEDNSAVISEGLLVVDAGSELSLSNTAMEIDNGRVLATAIIVGESSIEQVPTAEVLIAGVNQDTNTSEVVIRLPDENSNHLVKGRSVYELDCIPLWGTVSIQGNRSEMEAAFAVSPHFLKLPIKMLMGDHEGMSPSLTHLTGHFFGVYDGHGGHKVADYCRDRLHFALAEEIERIKDELCKRNTGEGRQVQWDKVFTSCFLTVDGEIEGKIGRAVVGSSDKVLEAVASETVGSTAVVALVCSSHIVVSNCGDSRAVLFRGKEAMPLSVDHKPDREDEYARIENAGGKVIQWQGARVFGRLAMSRSIGDRYLKPYVIPEPEVTFMPRSREDECLILASDGLWDVMNNQEVCEIARRRILMWHKKNGAPPLAERGKGIDPACQAAADYLSMLALQKGSKDNISIIVIDLKAQAKFKTRT
# modifications: left off: small tags and cut ends
# Assays:
# HAB1 [1] = test: Yeast two hybrid of pBD-PYR1 site saturation mutants with pACT-HAB1 on 10 μM ABA, β-galactosidase staining; type: cell-based, Arabidopsis; design: key: x: Mutations in PYR1 that disrupt ABA-induced binding to PYR1 to HAB1; settings: S. cerevisiae Y190, 10 μM ABA; dead = lack of visible staining in comparison to wild type control
# Summary of the method: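 S. cerevisiae Y190 co-expressing GAL4-DNA-binding-domain–PYR1 mutants and GAL4-activation-domain–HAB1 were spotted on SD (-Leu, -Trp) agar with 10 μM (+)-ABA for 2 days at 30° C. Colonies were chloroform-lysed and stained for β-galactosidase. Mutants lacking visible staining relative to wild type were scored as non-binding.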
# [2] = biological target: T1, HAB1^! (Arabidopsis thaliana); test: In vitro PP2C assay, ABA-promoted inhibition of GST-HAB1^! by receptor; type: biochemical; settings: in response to ABA; 100 nM receptor, 50 nM PP2C; FIG. 2
# T1 construct: 6xHis (N); made in house; host or cells: E. coli BL21 [DE3]pLysS
# From the text: (§1) In the presence of ABA, wild type PYR1 binds to HAB1 and docks into its active site, which inhibits its enzymatic activity by blocking access of substrates. To characterize the orthogonal PYR1^! and HAB1^! interaction biochemically, we produced recombinant forms of each protein in E. coli, along with the wild type form, and tested the wild type and orthogonal mutant for their ability to inhibit HAB1 and HAB1^! activities in vitro. We cloned PYR1^! into pET28 to generate 6×-His tagged receptor and cloned HAB1^! into pGEX-4T-1 to create a GST-fusion protein. The previously constructed (S.-Y. Park et al., 2009) wild type 6×-His-PYR1 and GST-HAB1 constructs were used for producing recombinant wild type proteins. The 6×-His-tagged receptors and GST-tagged PP2Cs were expressed and purified as previously described. Briefly, the proteins were expressed in BL21 [DE3]pLysS E. coli host cells at 18° C. overnight. […] The plates were read using a Victor 2 plate reader (PerkinElmer) (355 nm excitation, 460 nm emission) and assays run in triplicate. The PP2C activity values reported are expressed as percent control values, which were calculated by including the carrier solvent (1% DMSO) and the specific receptor assayed, but no ligand. […]
# HAB1 [3] = test: In vitro PP2C assay, ligand-promoted inhibition of GST-HAB1 by receptor; type: biochemical, Arabidopsis; settings: ABA-promoted; FIG. 2
# From the text: as §1, with “overnight. Fusion proteins were purified from sonicated lysates using Ni-NTA agarose (Qiagen, USA) or Pierce™ Glutathione Agarose (Thermo Scientific) according to the manufacturer's instructions. PP2C assays were conducted in 96-well polystyrene flat-bottom microtitre plates (Greiner).” for “overnight.”
# According to our current understanding, in order for ABA signaling to be initiated in vivo, PP2C activity must be inhibited to enable accumulation of active SnRK2 kinases. […] 4-methylumbeliferyl phosphate was added (1 mM final concentration) was added to the reactions after 30 minutes equilibration and plates were read by fluorimetry. The PP2C activity values reported are expressed as percent control values, which was calculated by including the carrier solvent (1% DMSO) and the specific receptor assayed, but no ligand.
# [4] = Phosphatase activity of recombinant GST-HAB1 proteins (4-methylumbeliferyl phosphate); type: biochemical; settings: 1 μg protein, percent control (GST-HAB1); FIG. 7
# From the text: as §1, with “described.” for “described. Briefly, the proteins were expressed in BL21 [DE3]pLysS E. coli host cells at 18° C. overnight.”
# To characterize HAB1^!-3 and HAB1* in vitro, we cloned them into pGEX-4T-1 to create GST-fusion proteins. […] The PP2C activity values reported are expressed as percent control (GST-HAB1) from triplicate measurements.
# PYR1*^-MANDI = biological target: T2, PYR1*^-MANDI (Arabidopsis thaliana, UniProt O49686, A160V/F108A/F159V/K59R/M158I/S122G/T162D/V81I/Y58H); test: Yeast two hybrid, mandipropamid-induced interaction of HAB1 variants with pBD-PYR1*^-MANDI; type: cell-based; settings: FIG. 5
# T2 construct: expressed in transfected cells; host or cells: S. cerevisiae strain MAV99 (selection)
# T2 sequence (O49686 1-191 Y58H/K59R/V81I/F108A/S122G/M158I/F159V/A160V/T162D): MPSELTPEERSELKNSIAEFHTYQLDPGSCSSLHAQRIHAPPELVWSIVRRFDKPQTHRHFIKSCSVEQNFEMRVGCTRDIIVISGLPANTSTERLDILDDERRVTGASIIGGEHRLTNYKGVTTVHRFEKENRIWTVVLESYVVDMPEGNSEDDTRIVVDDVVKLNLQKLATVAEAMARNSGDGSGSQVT
# From the text: To investigate the effects of overexpressing HAB1^!-2 in Arabidopsis, we used Agrobacterium mediated transformation to generate 35S::GFP-HAB1^!-2 transgenic plants. HAB1^!-2 was cloned from pACT-HAB1^!-2 into pEGAD, a binary vector suitable for plant transformation, generating a 35S-driven GFP-HAB1^!-2 fusion protein. The clone was transformed into Agrobacterium and the floral dip method used to transform Arabidopsis. After selection of T0 seed on soil containing glufosinate, several T1 seedlings were identified. […] As an alternate strategy, we eliminated HAB1's catalytic activity by introducing a mutation in a conserved metal-ion binding residue (D204), which is homologous to D131A mutation in ABI1, previously shown to eliminate phosphatase activity without disrupting wild type receptor-ABI1 interactions (Liang et al., 2011). We used QuickChange mutagenesis to introduce the D204A mutation into pACT-HAB1^!-2, generating pACT-HAB1^!-3. When tested for mandipropamid induced interactions with pBD-PYR1*^-MANDI, HAB1^!-3 is ˜10-fold less sensitive to mandipropamid relative to HAB1^!-2 (FIG. 5).
# D204 is located within HAB1's catalytic active site and binds to one of 3 catalytic Mg^++ ions that participate in catalysis. […] It is likely that disruptions to active site structure introduced by D204A destabilize the PYR1*^-MANDI/HAB1^!-3 interaction relative to HAB1^!-2. We reasoned that suppressor mutations in other HAB1 interface or active site residues could restore sensitivity by strengthening interactions with PYR1*^-MANDI. To identify such suppressors, we mutagenized the pACT-HAB1^!-3 template using NNK mutagenesis in 28 residues located with at the PYR1 binding interface. The residues targeted were: R199, S200, E201, E203, D243, G244, H245, G246, G247, S322, E323, T324, D346, K365, K381, 1383, Q384, W385, Q386, R389, F391, G392, Y404, S431, G433, D436, D492 and N394. The pACT-HAB1^!-3 template was mutagenized in 28 separate NNK mutagenesis reactions using the QuickChange protocol. Mini-libraries, each containing ˜1000 clones, were made for each NNK reaction and plasmid DNA for the 28 mutations prepared, pooled, and then transformed into S. cerevisiae strain MAV99 co-transformed with pBD-PYR1*^-MANDI, and then plated onto selective SD(-Leu,-Trp,-Ura) agar media supplemented with 500 nM mandipropamid. […] S322D and R199A were combined using the Lightning Multi-site Mutagenesis™ (Agilent, USA) method, and the resultant pentuple mutant tested in combination with pBD-PYR1*^-MANDI for sensitivity to mandipropamid using β-galactosidase assays.
Molecule,Mutations in PYR1 that disrupt ABA-induced binding to PYR1 to HAB1 (HAB1 [1]),inhibition of HAB1^! phosphatase activity [2],inhibition of HAB1 phosphatase activity (HAB1 [3]),catalytic activity in vitro [4],fold less sensitive to mandipropamid relative to HAB1^!-2 (PYR1*^-MANDI) [fold]
B1,x,does not strongly inhibit,unable to inhibit,,
B2,,,,Neither HAB1^!-3 or HAB1* display detectable catalytic activity,~10
